Results: the DeepSol protein solubility set

Assay: soluble on expression in E. coli; label from the status in PepcDB or PDB records

Row | Sequence | soluble on expression in E. coli
1 | MSIMKQRLPLGEFSSSKINKLAIANIADASEPRNHGENNVGTVCLPSIKSLMVSPEVYENTKSLPVPLMRSSGGGMACASKSSCQDGISTKTTSRDYSELSKKLQIRLQFAYYKYKTKQTDKNFTDLKSKHSITRPSKVATHSKSEPLTRRRKLVLSQGHYKTPARSKIKTPSSICSHDNTSSFTSFRGVSESSSTTADMNVADTTTPIRNNINTKHSNSHNRTLYQRQETPTSIKAAKSLIHLFTSNQ | not soluble
2 | MEQLKCHVKQYAWGKYGEESEVARLFADGHESFQIDQKTPYAELWMGTHPDGPAQLKKCSTKLSTYLAKNPSPLTNNNSAKNIHLPFIMKVMSIRTTLSLQVHPTKEQARRLHEKDPIHYPDRNHKPELAYALTRFELLCGFRPAREILQNLQTFPSFRLLFGGDTYAKPLEDCIQQMKDLNSVDQKSTEFKDSRKYLEDCFRFMMVPERNDVHDLIAKLLSELDNGLRGAVEEVTVGVIRKMSVDFPNDIGIFSPLFLNHMILEPGQCCYYAAEELHAYLSGECVECVGCSNNTIRAAMTPKYIDRDALCSVLNYKMTEQKDYLVPENKLTECVDMYAPDCKDFQLHRIRVGTHQTVEEMMIPTLDCASIFVVVSGKGTLEEATIDNQLIGQYEVKRGDIFYIPPKHNIRFSSCSEPLEGYRTFSYEMGPDHDTRLVTPVQNAVPTITEKMFKLDADMEEAITAVV | not soluble
3 | MGSDKIHHHHHHAQKKTQKTYIPWSNGKLVVSEEGRYLKHENGTPFFWLGETGWLLPERLNRDEAEYYLEQCKRRGYNVIQVQTLNNVPSMNIYGQYSMTDGYNFKNINQKGVYGYWDHMDYIIRTAAKKGLYIGMVCIWGSPVSHGEMNVDQAKAYGKFLAERYKDEPNIIWFIGGDIRGDVKTAEWEALATSIKAIDKNHLMTFHPRGRTTSATWFNNAPWLDFNMFQSGHRRYGQRFGDGDYPIEENTEEDNWRFVERSMAMKPMKPVIDGEPIYEEIPHGLHDENELLWKDYDVRRYAYWSVFAGSFGHTYGHNSIMQFIKPGVGGAYGAKKPWYDALNDPGYNQMKYLKNLMLTFPFFERVPDQSVIAGQNGERYDRAIATRGNDYLMVYNYTGRPMEVDFSKISGAKKNAWWYTTKDGKLEYIGEFDNGVHKFQHDSGYSSGNDHVLIVVDSSKDYVKKDCYQIDTHE | not soluble
4 | MLSGDLAEFPFPSLVGALMSAGRTGRLHLRPPFLEAEVYLRGGQVVHAKAQAGERALEGEEALDLLVGLRRAPFVFEPEALPPHTTLLGGLEVPARLAQAQAAWEKVKLPADWGLRLRLPREGSAVELPPEALGLLARVEGKRIAEVLLAPGVLRQARVLSTLLEVGALEAYPEVDLPPEPLVVLPIYGPGSGVAYVDEALYAQWARAIRRGFRVRLLPLGAVLEVRPRPNLQGRVGLMEEDLKRLRLRRGDKVEAVPKV | soluble
5 | MEQRTAEWFQARLGKVTASNIYNVLSKTAKGTPTSKYEEYKIKLMTERLTEEISQSYLTPAMQWGIEHEEDALKEYAIIYDTEVIKCGFIQHPTIEMAGASPDGLIGEEGLVEVKCPHSTKHLRFYMDGTIKPEYKAQMQFQMACTGRQWCDFVSYDPHFVGRSLRLRMKIKRIHRDEKQIEQINQAVEIFLEEIEQEMKQILTQAA | not soluble
6 | MSELLAGTKLINQDSEELDAGEHLKGKVVGLYFSASWCPPCRQFTPKLTRFFDEIRKKHPEFEVVFVSRDREDGDLREYFLEHMGAWTAIPFGTPRIQELLEQYEVKTIPSMRIVKPNGDVVVQDARTEIQDKGNDPEALWEEWLAFYD | not soluble
7 | MSLGKTSMIHAIVDQYSHCEWVENSMSANENNLIWIDLEMTGLDPERDRIIEIATLVTDANLNILAEGPTIAVHQSDEQLALMDDWNVRTHTASGLVERVKASTMGDREAELATLEFLKQWVPAGKSPICGNSIGQDRRFLFKYMPELEAYFHYRYLDVSTLKELARRWKPEILDGFTKQGTHQAMDDIRESVAELAYYREHFIKLEGGSHHHHHH | soluble
8 | MPLQVDDVAERAFVRIVGALRSVRVTSERSQNSLSTFLPVRGRAISEWETGAIQPKLSHLIQWSWELDRRLVIVGRDGELRNDSLRQRPGESWEVFERRRLATPLRNRRQAMGMAQGELADLVGVTRDSIQRWELVRVPPRPIALIVWAQKLG | not soluble
9 | MSLSARAEDINNIENKTIGHGRTSYNKSVSGRVENIRLSTESVDYVVLGSGDTFTFNGIVGERTKERGYQVASVIMDGDFTDGLGGGICQTSTTLYNAVLDAGLTVLERHPHSLPVGYVEEGMDAMVSWGSADLRFRNDFDYPVVIRGGVDKEKGEVWFDIREGHHHHHH | soluble
10 | MGHHHHHHSHMGCDGGTIPKRHELVKGPKKVEKVDKDAELVAQWNYCTLSQEILRRPIVACELGRLYNKDAVIEFLLDKSAEKALGKAASHIKSIKNVTELKLSDNPAWEGDKGNTKGDKHDDLQRARFICPVVGLEMNGRHRFCFLRCCGCVFSERALKEIKAEVCHTCGAAFQEDDVIVLNGTKEDVDVLKTRMEERRLRANREKKTKKPKAAESVSKPDVSEEAPGPSKVKTGKPEEASLDSREKKTNLAPKSTAMNESSSGKAGKPPCGATKRSIADSEESEAYKSLFTTHSSAKRSKEESAHWVTHTSYCF | not soluble
11 | MNGNGENGTDEKQKLLSVVGVVSEEVVEMNRVSSARFQVSKTDEDEKTSDDNLRKLKSGSEPPPPTQNHEAVTLVTRKMSATGRFMVTSDTNPGQLVAEVADELGIDVPIDPPAEKSPASRAKGVHFSVGDKDSGSMSEDGDEKRNITHENQTTFNMKSWRNMKTIEHPPIIDFYRNSIDTDGVFNRPSMAQLIHGKEHKEQDLGFEELNKKPETAQLAKVIGLNLLSKEDQERRDFERKKRINQQKLQEMHKMHKETYNFR | not soluble
12 | MSSTAVVPSAPGPGPGPSGGPGGGTEVIQVTNVSPSASSEQMRTLFGFLGKIDELRLFPPDDSPLPVSSRVCFVKFHDPDSAVVAQHLTNTVFVDRALIVVPYAEGVIPDETKALSLLAPANAVAGLLPGGGLLPTPNPLTQIGAVPLAALGAPALDPALAALGLPGTNLNSQSLAADQLLKLMSTVDPKLNHVAAGLVSPSLKSDTSSKEIEEAMKRVREAQSLISAAIEPDKKEEKRRHSRSRSRSRRRRTPSSSRHRRSRSRSRRRSHSKSRSRRRSKSPRRRRSHSRERGRRSRSTSKARD | soluble
13 | MAHHHHHHMQVPPLTELSPSISVHLLLGNPSGATPTKLTPDNYLMVKNQYALSYNNSKGTANWVAWQLNSSWLGNAERQDNFRPDKTLPAGWVRVTPSMYSGSGYARGHIAPSADRTKTTEDNAATFLMTNMMPQTPDNNRNTWGNLEDYCRELVSQGKELYIVAGPNGSLGKPLKGKVTVPKSTWKIVVVLDSPGSGLEGITANTRVIAVNIPNDPELNNDWRAYKVSVDELESLTGYDFLSNVSPNIQTSIESKVDN | soluble
14 | MSLNNTKQPVVILVGPTAVGKTNLSIQLAKSLNAEIISGDSMQIYKGMDIGTAKITEQEMEGVPHHLIDILDPQDSFSTADYQSLVRNKISEIANRGKLPMIDGGTGLYIQSELYDYTFTEEANDPVFRESMQMAAEREGADFLHAKLAAADPEAAAAIHPNNTRRVIRALEILHTSGKTMSQHLKEQKRELLYNAVLIGLTMDRDTLYERINQRVDLMMQSGLLPEVKRLYDKNVRDCQSIQAIGYKELYAYFDGFVTLSDAVEQLKQNSRRYAKRQLTWFRNKMQVTWFDMTPPVDMELKKKEIFTHIAGKLELEGHHHHHH | soluble
15 | MSLSELGLGDPERPLDAVLHGFSISQSETIGRRTEMEDVTMIIKDFASYRRGRSSYRGAKCHESGHKEILLGIFDGHGGTECSSMVGDLFPVAFADALNSVLYAAQLNHAYDLPDSVWEPLFVGVFLRLDDTLRLKNIQSGSTAAICFILDNLVVSANCGDSRTVLTRDEAMIKSFGCDSMLYKVEGPTRSSRINEISSGSLLQLEQSQTAQLSGHAIINSARYFMNPEETSEEALVSAKRRGKRVEGLSLRLSKDHKPDDPTETRRIEASGGYVHGGRVMGTLSVCRSFGDFVYKPSISVVPFVSVYHFRTYDAWIVIACDGCWDSISDIDAAMLLSTCLSSQAGALKLRDEAYRLNSQDNISVITVRLYLEEGHHHHHH | soluble
16 | VAYLTEVVVNEVVEAHEVPEVQHALNINSSESLIHIVRTRRLNQHVKIVDEDYFLKSIVSDIGNDVASDSIYDYLEKVLNLNISYSSKSITFEPFDEQAYQLFGDVSVAYSATVRSIVYLENTMPFQYNISKHLA | not soluble
17 | MSNRFKFFAAIREYNPEGEVFLRIIGTGSNNNLTYRIMESRLNEVGISLGSFLSAVVPMGEPIRDFVPEERNFKVIIDGIVAMVENIEGNLEKNEEGVLVFSTEDFGLVRALDQKLSPGQYQITVRATKFSERKIFKNMNYCAEAQKIAPLVTATESESIFKRVASFFQKSPEENSLESTSKQANEEKDSSVQDLSMAELIEILPNLDQKSINQPTPAPRSMVGSVGITRTMNALVCDVIHQEKECIHFLWICEIQQISMFASKSHYLSPGKFFEGLFEKKETNWECIRFVGEKKELLKGITDGDKFKVTLTNEQGFPVFTVENLYAKLIAFEGKFVFHNKTFGNAIIGCYRPPGDYKITIKLLPIPFTTPTGKFICFEAIHFESADVLSSSNTNTTENKKKVTEKVKERGIRRPQDPKSKGIQRAVVIRVIEKGNSTDYIVWNLDSKMECIFRSAKHELERGHFFSGKFVKKSDGSLMCTNYVKQIKGFVEGGLDEHENIYFTVPIQNFQAARGNRKYNCAFSEYFGEVLEGKAENTKLSSNCNGKTVNIEWKKIGASGSDEYVWIVSKIF | not soluble
18 | SNAMTLTALNAISPIDGRYVNKTRALSPYFSEFALTYYRLMVEIKWFESLAANDTIPEVPALDNKARKFLSDLISNFNESEAEKIKEFEKQTNHDVKAVEYYLQDKFQENEQLKSCVAFIHFACTSEDINNLAYALMIKQAIAQVIQPTIAEIMGSITLLGKQHADVAMLSRTHGQPATPTTMGKELVNFVARLKRPQQQLAEVLIPAKFNGAVGNYNAHVAAYPEVDWRKHCANFVTSLGLSFNAYTTQIEPHDGIAEVSQIMVRINNILLDYTQDIWSYISLGYFKQKTIAEEVGSSTMPHKVNPIDFENAEGNLGLSNALFIHFANKLTQSRMQRDLSDSTVLRNLGVAFSYSLIAYHSVAKGNDKLQINKSALQKDLSENWEVLAEAIQTVMRRYNEPNAYEQLKELTRGQMIDAENLKKFIKTLSIPEEAKAELMKLTPETYTGLATQLVKAFS | soluble
19 | MSLSTARLPENAERNRFQDVLPYDDARVELVPTKENNTGYINASHIKVSVSGIEWDYIATQGPLQNTCQDFWQMVWEQGIAIIAMVTAEEEGGREKSFRYWPRLGSRHNTVTYGRFKITTRFRTDSGCYATTGLKMKHLLTGQERTVWHLQYTDWPEHGCPEDLKGFLSYLEEIQSVRRHTNSTSDPQSPNPPLLVHCSAGVGRTGVVILSEIMIACLEHNEVLDIPRVLDMLRQQRMMLVQTLCQYTFVYRVLIQFLKSSRLIEGHHHHHH | not soluble
20 | MAHHHHHHMQQSSLVRRNVFHYTTVLTACTRAGQMDAAMMVFRQMKANKVKPNVYTYTTLINGCANAEKLDLALRIFAEMRLVEVPPNVKTMTALISVCSRCGQWKKGFQVLDQCEDLFIAPNALTYTAAMDGCRRAGVCTPAIALLEARMTDPSQVRPNEVTYNTVLGACAAAKDHKAALRVYARMVADGYEPIEYTRELLREVFRGTSLDGLADKLMVRVRTSKWEAYVPDSDPATALRAAQEGG | not soluble
21 | SMQEKREELRMRSENQAMNIVLQRQYDQYRLSIDNIELLRREFHDLKHYMIAIRSEQDPKKKEQYLLEMEEAIHTQEALTNTGNSVLDVVLTTKSTYCMQKHITFTCMADGKLISFMHVKDICSIFGNALDNAIECVSQFDDPEKRLITLSMYQKNQLLMIQCENYTETSLSLKPDQLPTTTKQNAGYHGYGLKSIQQAARKYGGSMTLHAEDNWFTLQVLIPVES | not soluble
